Results on six substances are retold here after patent US20210338724A1.

In general, EC50 (read off the curve) refers to the concentration that produces a half-maximal response. Lower therefore signals greater potency.

One assay addresses TGFβ1 (R&D systems) (UniProt P01137). Description: cell-based or functional assay.
Assay [1] deals with IL-18/TF/IL-15:IL-12/IL-15RαSu protein complex (18t15-12s) (human). Nature of the assay: sandwich ELISA; the concentration is that of the titrated 18t15-12s; anti-human tissue factor capture, BAM 247 detection at a fixed concentration.
IL-18/TF/IL-15:IL-12/IL-15RαSu protein complex (18t15-12s) (human), sequence (chain, as listed by the source, chain 1 of 2): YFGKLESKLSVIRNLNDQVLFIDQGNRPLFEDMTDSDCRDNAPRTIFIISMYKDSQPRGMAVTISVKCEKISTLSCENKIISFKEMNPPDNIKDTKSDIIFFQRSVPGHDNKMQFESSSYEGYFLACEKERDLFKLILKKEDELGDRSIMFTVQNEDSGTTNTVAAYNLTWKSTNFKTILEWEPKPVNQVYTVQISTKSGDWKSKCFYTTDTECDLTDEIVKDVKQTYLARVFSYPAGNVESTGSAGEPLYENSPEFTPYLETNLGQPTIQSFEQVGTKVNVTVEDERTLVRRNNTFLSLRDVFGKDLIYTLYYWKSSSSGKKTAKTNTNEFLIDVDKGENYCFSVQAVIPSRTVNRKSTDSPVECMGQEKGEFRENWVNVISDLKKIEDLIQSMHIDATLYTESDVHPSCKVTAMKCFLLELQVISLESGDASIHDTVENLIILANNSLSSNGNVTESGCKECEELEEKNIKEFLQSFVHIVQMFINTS
IL-18/TF/IL-15:IL-12/IL-15RαSu protein complex (18t15-12s) (human), sequence (chain, as listed by the source, chain 2 of 2): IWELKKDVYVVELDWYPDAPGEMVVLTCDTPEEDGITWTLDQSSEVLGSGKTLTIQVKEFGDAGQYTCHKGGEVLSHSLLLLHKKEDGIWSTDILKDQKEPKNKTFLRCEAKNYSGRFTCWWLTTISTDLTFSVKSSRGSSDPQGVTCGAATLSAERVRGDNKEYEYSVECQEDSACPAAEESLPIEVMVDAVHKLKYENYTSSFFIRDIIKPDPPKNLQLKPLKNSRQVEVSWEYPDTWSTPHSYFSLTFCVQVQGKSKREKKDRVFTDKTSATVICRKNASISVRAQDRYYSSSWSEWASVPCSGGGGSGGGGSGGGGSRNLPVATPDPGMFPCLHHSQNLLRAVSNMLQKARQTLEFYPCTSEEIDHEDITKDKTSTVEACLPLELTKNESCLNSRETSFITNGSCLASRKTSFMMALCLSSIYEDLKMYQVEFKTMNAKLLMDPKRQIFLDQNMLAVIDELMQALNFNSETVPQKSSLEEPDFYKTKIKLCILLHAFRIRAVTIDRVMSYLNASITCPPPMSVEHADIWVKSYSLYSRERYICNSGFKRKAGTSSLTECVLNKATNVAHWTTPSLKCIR
The target is the same in assay [2]. Description: sandwich ELISA; the concentration is that of the titrated 18t15-12s; anti-human tissue factor capture, D045-6 detection at a fixed concentration.
In assay [3] the target is IL-2Rα, IL-2Rβ and common γ chain on CTLL-2 cells. Nature of the assay: cell-based or functional assay.
For assay [4], the target named is IL-2Rβ and common γ chain on 32Dβ cells. Description: cell-based or functional assay.

UniProt P01137, sequence (P01137 279-390 limits assumed): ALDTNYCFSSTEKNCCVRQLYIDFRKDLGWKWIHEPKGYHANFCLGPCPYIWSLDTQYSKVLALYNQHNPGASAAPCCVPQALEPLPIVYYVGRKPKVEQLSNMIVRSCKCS

TGFR-Fc (R&D Systems) (Fc fusion) had an IC50, inhibition of TGFβ1 activity in HEK-Blue TGFβ reporter cells (QUANTI-Blue OD) in the assay with TGFβ1 (R&D systems) of 461 pM. In turn, “biotinylated anti-human IL-15 detection antibody (BAM 247)” showed an EC50 (read off the curve) in assay [1] of 10 ng/mL. The substance “biotinylated anti-human IL-18 detection antibody (D045-6)” registered an EC50 (read off the curve) in assay [2] of 30 ng/mL.

In assay [3], “recombinant IL2 (Proleukin) (from UniProt P60568 22-153) (ligand)” had an EC50, CTLL-2 cell proliferation (WST1) of 253 pM. In addition, in assay [4], the EC50, 32Dβ cell proliferation (WST1) was 65.5 pM. Regarding “recombinant IL-2 (from UniProt P60568 21-153) (ligand)”, the EC50, CTLL-2 cell proliferation (WST1) in assay [3] was found to be 548 pM. Moreover, the EC50, 32Dβ cell proliferation (WST1) in assay [4] is 140 pM.

Take “recombinant IL-15 (from UniProt P40933 49-162) (ligand)”: in assay [4], the EC50, 32Dβ cell proliferation (WST1) came to 10.6 pM.
